“And” between values parts separate entries of the source, which are not always exact repeats. Identical values can stand only once. Where no end group is shown, it is not given here.
How the values were obtained:
[1] = GLP Aggregation Assay (time to onset of aggregation, turbidity at 350 nm); type: physicochemical; settings: for Aggregation Time: 0.3 mg/mL in 10 mM citrate, 10 mM phosphate, 150 mM NaCl, pH 7.4 to 7.5, 37° C., stirred, turbidity at 350 nm; for Aggregation Time in Hours: *Aggregation time determined at 30° C.
Method: GLP peptides of this invention were analyzed with respect to their potential to aggregate in solution. In general, peptides in solution were stirred at elevated temperature in a suitable buffer while recording turbidity at 350 nm as a function of time. Time to the onset of aggregation was measured to quantify the potential of a given GLP molecule to aggregate under these stressed conditions.
A GLP-1 compound was first dissolved under alkaline conditions (pH 10.5) for 30 minutes to dissolve any pre-aggregated material. The solution was then adjusted to pH 7.4 and filtered. Specifically, 4 mg of a lyophilized GLP-1 compound was dissolved in 3 ml of 10 mM phosphate/10 mM citrate. The pH was adjusted to 10.0-10.5 and held for 30 minutes. The solution was adjusted with HCl to pH 7.4 and filtered through a suitable filter, for example a Millex GV syringe filter (Millipore Corporation, Bedford, Mass.). This solution was then diluted to a final sample containing 0.3 mg/mL protein in 10 mM citrate, 10 mM phosphate, 150 mM NaCl, and adjusted to pH 7.4 to 7.5. […] Every five minutes the turbidity of the solution was measured at 350 nm on an AVIV Model 14DS UV-VIS spectrophotometer (Lakewood, N.J.). For 30 seconds prior to and during the measurement the solution was stirred using a magnetic stir bar from Starna Cells, Inc. (Atascadero, Calif.). An increase in OD at 350 nm indicates aggregation of the GLP-peptide. The time to aggregation was approximated by the intersection of linear fits to the pre-growth and growth phase according to method of Drake (Arvinte T, Cudd A, and Drake A F. (1993) J. Bio. Chem. 268, 6415-6422).
The cuvette was cleaned between experiments with a caustic soap solution (e.g., Contrad-70).
The results for a number of GLP-1 compounds of the present invention are reported in Table 1 as the time in hours required for the compound to aggregate.

[2] = tested on: GLP-1 receptor; assay: GLP-1 receptor activation, in vitro assays; type: cell-based; settings: activity relative to the activity of GLP-1(7-37)OH
Text: “Insulinotropic activity” refers to stimulating insulin secretion in response to elevated glucose levels, thereby causing glucose uptake by cells and decreased serum glucose levels. Insulinotropic activity can be assessed by methods known in the art, including using in vivo experiments and in vitro assays that measure GLP-1 receptor binding activity or receptor activation, e.g., assays employing pancreatic islet cells or insulinoma cells, as described in EP 619,322 to Gelfand, et al., and U.S. Pat. No. 5,120,712, respectively. The entire teachings of these references are incorporated herein by reference.
The ability of the GLP-1 compounds of the present invention to activate the GLP-1 receptor was assessed using in vitro assays such as those described in EP 619,322 to Gelfand, et al., and U.S. Pat. No. 5,120,712, respectively. The entire teachings of these references are incorporated herein by reference.

[3] = Zinc precipitation of GLP-1 compounds (A280 of supernatant); type: physicochemical; settings: HEPES pH 7.4, 22° C., 18 hours
Method: Individual GLP-1 compounds were prepared as described in Examples 1 or 2. 3 mg of an individual lyophilized GLP molecule was dissolved in 3 ml 0.1 M HEPES buffer pH 10.5. The pH of the resulting solution was then adjusted to between 10.0 and 10.5 with 0.2 N NaOH. The solution was stirred at ambient temperature for 30 minutes and the solution was then adjusted to a pH of 7.4 with 0.2 N HCl. The solution was filtered through an appropriate syringe filter, for example a Millex GV syringe filter (Millipore Corporation, Bedford, Mass.), and the concentration of the GLP-1 compound was estimated by measuring the absorption at 280 nm in a spectrophotometer, for example a Beckman DU640. The protein concentration was then adjusted to 200 μM in HEPES pH 7.4.
The filtered GLP-1 solutions (100 μl) were diluted with 100 μl of 0.1 M HEPES pH 7.4 containing various levels of zinc chloride in an ELISA plate, (e.g. Falcon Microtest™ 96) resulting in 200 μl of solution containing various levels of zinc chloride and 100 μM GLP-1 compounds. These solutions were incubated at ambient temperature (22° C.) for 18 hours and then centrifuged, for example, in a Jouan CR412 centrifuge with microplate adapters. 150 μl of the supernatants after centrifugation were then transferred to a UV-readable ELISA microtiter plate (e.g. Costar UV plate) and the OD at 280 was determined in a microplate reader (e.g. Molecular Devices SPECTRAmax PLUS, SOFTmax PRO). A280 values are the result of two independent determinations.

[4] = Zn/GLP-1 molar ratio 0, 100 μM GLP-1 compound
[5] = Zn/GLP-1 molar ratio 0.3, 100 μM GLP-1 compound
[6] = Zn/GLP-1 molar ratio 0.5, 100 μM GLP-1 compound
[7] = Zn/GLP-1 molar ratio 0.7, 100 μM GLP-1 compound
[8] = Zn/GLP-1 molar ratio 1, 100 μM GLP-1 compound
[9] = Zn/GLP-1 molar ratio 2, 100 μM GLP-1 compound
[10] = Zn/GLP-1 molar ratio 3, 100 μM GLP-1 compound
[11] = Zn/GLP-1 molar ratio 5, 100 μM GLP-1 compound

For “Ala^8-His^26-GLP-1(7-37)OH (HAEGTFTSDVSSYLEGQAAHEFIAWLVKGRG)”, the “Aggregation Time” value [1] was >24 h and the “GLP-1 Receptor Activation” value [2] was 0.8.

For “Val^8-Lys^22-Glu^30-GLP-1(7-37)OH (HVEGTFTSDVSSYLEKQAAKEFIEWLVKGRG)”, the “Aggregation Time” value [1] was 4 h and the “GLP-1 Receptor Activation” value [2] was 0.37.

For “Gly^8-Glu^30-GLP-1(7-37)OH (HGEGTFTSDVSSYLEGQAAKEFIEWLVKGRG)”, the “Aggregation Time” value [1] was >40 h and the “GLP-1 Receptor Activation” value [2] was 0.29.

In the case of “Val^8-Ala^27-GLP-1(7-37)OH (HVEGTFTSDVSSYLEGQAAKAFIAWLVKGRG)”, the “Aggregation Time” value [1] is reported as 2 h.

For “Val^8-Glu^34-GLP-1(7-37)OH (HVEGTFTSDVSSYLEGQAAKEFIAWLVEGRG)”, the “Aggregation Time in Hours” value [1] was >40* Hours and the “GLP-1 Receptor Activation” value [2] was 0.17.

With “Val^8-Tyr^12-GLP-1(7-37)OH (HVEGTYTSDVSSYLEGQAAKEFIAWLVKGRG)” the “Aggregation Time” value [1] was 6 h and the “GLP-1 Receptor Activation” value [2] was 0.81.

For “Gly^8-His^11-GLP-1(7-37)OH (HGEGHFTSDVSSYLEGQAAKEFIAWLVKGRG)”, the “Aggregation Time in Hours” value [1] was 9* Hours and the “GLP-1 Receptor Activation” value [2] was 0.282.

In the case of “Val^8-His^30-GLP-1(7-37)OH (HVEGTFTSDVSSYLEGQAAKEFIHWLVKGRG)”, the “Aggregation Time” value [1] is reported as 13 h and the “GLP-1 Receptor Activation” value [2] is reported as 0.19.

With “Ala^8-Glu^26-GLP-1(7-37)OH (HAEGTFTSDVSSYLEGQAAEEFIAWLVKGRG)” the “Aggregation Time” value [1] was >24 h and the “GLP-1 Receptor Activation” value [2] was 0.7.

For “Val^8-Asp^30-GLP-1(7-37)OH (HVEGTFTSDVSSYLEGQAAKEFIDWLVKGRG)”, the “Aggregation Time” value [1] was >45 h and the “GLP-1 Receptor Activation” value [2] was 0.15.

With “Val^8-His^35-GLP-1(7-37)OH (HVEGTFTSDVSSYLEGQAAKEFIAWLVKHRG)” the “Aggregation Time” value [1] was > 45 h and 30 h and the “GLP-1 Receptor Activation” value [2] was 0.41.

For “Val^8-His^27-GLP-1(7-37)OH (HVEGTFTSDVSSYLEGQAAKHFIAWLVKGRG)”, the “Aggregation Time” value [1] was 10 h and the “GLP-1 Receptor Activation” value [2] was 0.37.

For Val^8-Lys^33-Asn^34-GLP-1(7-37)OH, the “Aggregation Time” value [1] was >48 h and the “GLP-1 Receptor Activation” value [2] was 0.09.

With “Val^8-His^36-GLP-1(7-37)OH (HVEGTFTSDVSSYLEGQAAKEFIAWLVKGHG)” the “Aggregation Time” value [1] was 8 h and the “GLP-1 Receptor Activation” value [2] was 0.22.

In the case of “Val^8-Lys^11-GLP-1(7-37)OH (HVEGKFTSDVSSYLEGQAAKEFIAWLVKGRG)”, the “Aggregation Time” value [1] is reported as 13 h and the “GLP-1 Receptor Activation” value [2] is reported as 0.001.

For “Val^8-His^37-GLP-1(7-37)OH (HVEGTFTSDVSSYLEGQAAKEFIAWLVKGRH)”, the “Aggregation Time” value [1] was >40 h and the “GLP-1 Receptor Activation” value [2] was 0.33.

For “Val^8-His^22-GLP-1(7-37)OH (HVEGTFTSDVSSYLEHQAAKEFIAWLVKGRG)”, the “Aggregation Time” value [1] was >75 h and the “GLP-1 Receptor Activation” value [2] was 0.14.

With “Val^8-Glu^23-GLP-1(7-36)OH (HVEGTFTSDVSSYLEGEAAKEFIAWLVKGR)” the “Aggregation Time” value [1] was 65 h and the “GLP-1 Receptor Activation” value [2] was 0.28.

In the case of “Val^8-Glu^22-Lys^23-GLP-1(7-37)OH (HVEGTFTSDVSSYLEEKAAKEFIAWLVKGRG)”, the “Aggregation Time” value [1] is reported as >65 h and the “GLP-1 Receptor Activation” value [2] is reported as 1.43.

In the case of “Val^8-Glu^16-GLP-1(7-37)OH (HVEGTFTSDESSYLEGQAAKEFIAWLVKGRG)”, the “Aggregation Time” value [1] is reported as 12 h and the “GLP-1 Receptor Activation” value [2] is reported as 0.047.

For “Val^8-Glu^22-Ala^27-GLP-1(7-37)OH (HVEGTFTSDVSSYLEEQAAKAFIAWLVKGRH)”, the “Aggregation Time” value [1] was >45 h.

In the case of Val^8-Phe^22-GLP-1(7-37)OH, the A280 [3, 4] is reported as 0.31, the A280 [3, 5] is reported as 0.1485 and the A280 [3, 6] is reported as 0.1165. The A280 [3, 7] was 0.1015, the A280 [3, 8] was 0.1265 and the A280 [3, 9] was 0.092. The A280 [3, 10] was 0.061 and the A280 [3, 11] was 0.00795.

In the case of “Val^8-Lys^22-Glu^23-GLP-1(7-37)OH (HVEGTFTSDVSSYLEKEAAKEFIAWLVKGRH)”, the “Aggregation Time” value [1] is reported as >30 h and the “GLP-1 Receptor Activation” value [2] is reported as 0.35.

For “Val^8-Glu^35-GLP-1(7-37)OH (HVEGTFTSDVSSYLEGQAAKEFIAWLVKERG)”, the “Aggregation Time” value [1] was 63 h and the “GLP-1 Receptor Activation” value [2] was 0.15.

In the case of “Val^8-Gly^36-Pro^37-GLP-1(7-37)NH2 (HVEGTFTSDVSSYLEGQAAKEFIAWLVKGGP-NH2)”, the “Aggregation Time” value [1] is reported as 2 h and the “GLP-1 Receptor Activation” value [2] is reported as 0.53.

For “Val^8-GLP-1(7-37)OH [reference compound]”, the A280 [3, 4] was 0.3, the A280 [3, 5] was 0.27 and the A280 [3, 6] was 0.26. The A280 [3, 7] was 0.124, the A280 [3, 8] was 0.06 and the A280 [3, 9] was 0.025. For the same substance, the A280 [3, 10] was 0.021, the A280 [3, 11] was 0.019 and the “Aggregation Time” value [1] was 0.9 ± 0.2 h.

For Gly^8-Glu^22-GLP-1(7-37)OH, the “Aggregation Time” value [1] was 19 h.

“Gly^8-GLP-1(7-37)OH (HGEGTFTSDVSSYLEGQAAKEFIAWLVKGRG-OH; UniProt P01275 98-128, looked up, variant A8G) [reference compound]” showed an A280 [3, 4] of 0.32, an A280 [3, 5] of 0.166 and an A280 [3, 6] of 0.151. It also gave an A280 [3, 7] of 0.156, an A280 [3, 8] of 0.119 and an A280 [3, 9] of 0.089. For the same substance, the A280 [3, 10] was 0.085 and the A280 [3, 11] was 0.078.

GLP-1(7-37)OH [reference compound] showed an A280 [3, 4] of 0.337, an A280 [3, 5] of 0.318 and an A280 [3, 6] of 0.329. For the same substance, the A280 [3, 7] was 0.253, the A280 [3, 8] was 0.148 and the A280 [3, 9] was 0.092. The A280 [3, 10] was 0.081, the A280 [3, 11] was 0.074 and the “Aggregation Time” value [1] was 1 h.

Source: patent US20060263849A1, “Glucagon-like peptide-1 analogs” (priority 2000, published 2006)
